Measurements taken from patent publication US20250034594A1, “RNA-GUIDED GENOME RECOMBINEERING AT KILOBASE SCALE” (THE BOARD OF TRUSTEES OF THE LELAND STANFORD JUNIOR …, priority 2021, published 2025).

Columns and labels:
Assay type in all cases: cell-based
gene editing with Cas9 = test: Screen of 322 new SSAP proteins, gene editing activity with Cas9 (Table 5); design: Cas9 with SSAP activity: scale not given here
How it was run: (§1)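 The 322 SSAP proteins were found in sequence data and then synthesized. Each was screened for gene editing activity when paired with Cas9 and with dCas9.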

gene editing with dCas9 = test: Screen of 322 new SSAP proteins, gene editing activity with dCas9 (Table 5); design: dCas9 with SSAP activity: scale not given here
How it was run: as §1

[1] = system: gene editing with Cas9 and dCas9; test: Screen of 322 new SSAP proteins, activity across all experiments (Cas9 and dCas9, Table 5); design: scale not given here
How it was run: as §1

B1: SSAP_19: SEQ ID NO: 188 (protein)
chain: NTPTMKRKFEEVLHENANAFMSNVMTLVSNDSYLAESEPMSILSGALTAATLNLGLDKNLGYAYLVPFNTKNKQTGKWERKAQFILGYKGYIQLAQRSGKYKALNVIEVYEGELLSWNRLTEEFEFDPNGRQSDDVIGYVGYFELLNGFKKTVYWTKQEIEAHRIANSKDKEKTKLSGVWATDYNAMARKTVLRNMLSKWGILSIEMQEATTSDEKVQQMQEDGNIISETEVEENTTMKTAEVINEADSDSLNQTDLFDTKNPPLE
Gene editing with Cas9
  Cas9 with SSAP activity: −0.298
  Cas9 with SSAP activity (normalized): −0.329
Gene editing with dCas9
  dCas9 with SSAP activity: −1.396
  dCas9 with SSAP activity (normalized): −0.389
[1]
  Activity across all experiments: −0.847

B2: SSAP_296: SEQ ID NO: 465; Peptostreptococcaceae bacterium VA2 (protein)
chain: QPFLVQRYPHLDVVLNDQVHVLKSFFFQNHIILYLYKYIECLQIFHKPLLKGDRGKVIGYYAVYHLEPNGYNFVFMTYDEVKNHGKKYSKNFEGGIWEKEFDSMAKKTVIKKLLKYAPLSIEMQKAVTFDESVKGSIDNDMLLVESIEDVEEIQLDTNI
modifications: Peptostreptococcaceae bacterium VA2
Gene editing with Cas9
  Cas9 with SSAP activity: 0.244
  Cas9 with SSAP activity (normalized): 0.617
Gene editing with dCas9
  dCas9 with SSAP activity: −1.749
  dCas9 with SSAP activity (normalized): −0.598
[1]
  Activity across all experiments: −0.753

B3: SSAP_295: SEQ ID NO: 464; Pseudoalteromonas (multispecies) (protein, listed as Pseudoalteromonas sp.)
chain: SLSLQEYQNLLYGKLTACKGQFDACLSENGYKLDFNTELNYVYQIVMSGLNVEYSFPYTPVESVITSFLKAAKIGLSLCPTEQLCFLKTEYSESSGQYVTQLGLGYKGILKLAYRSGKVKQINANVFYEKDNFQYNGVNSKVTHTTTVLSKAMRGQLAGGYCQTELIDGSFKTTVMPPEEILAIEEQGKAMGNEAWLSVHVDQMREKTLIKRHWKTLCPCIYRDSVMNDPMLFDDQDCQHSSNQQAYEEQFESAYSREAY
Gene editing with Cas9
  Cas9 with SSAP activity: −2.337
  Cas9 with SSAP activity (normalized): −0.343
Gene editing with dCas9
  dCas9 with SSAP activity: −2.038
  dCas9 with SSAP activity (normalized): −0.267
[1]
  Activity across all experiments: −2.188

B4: SSAP_308: SEQ ID NO: 477; uncultured organism (protein)
chain: SNELQNIKPEVFGEVEDKLGSLADNNGIDLPENYSARNALKQAYLKLQSKDEPVFDKYKDETIYNALLDTLTQGLNPGKDQVYYIGYGNHLTAQKSYFGNIALAKRMAGVQEVSSNVILEGDEVDISIERGQQVIESHDRNFDSMDGQVKGAYAVISFEDERKDKYEIMTLKELKQAWAQGKSFGGNGKSPHHKFTKEMAKKTVINRALKPLIKASDDSGLIKEKPKLEKLKDGQQERTEGEKIEEVDVDKEEVVEVDYDV
modifications: uncultured organism
Gene editing with Cas9
  Cas9 with SSAP activity: −0.693
  Cas9 with SSAP activity (normalized): −1.286
Gene editing with dCas9
  dCas9 with SSAP activity: −1.277
  dCas9 with SSAP activity (normalized): −1.011
[1]
  Activity across all experiments: −0.985

B5: SSAP_75: SEQ ID NO: 244 (protein)
chain: ANELGIFSVDNLNMTTIKQYLDGGGKASDAELVLLINLCKQNNMNPFMKEVYFIKYGNQPAQIVVSRDFYRKRAFQNPNFAGIEVGVIVLNKDGVLEHNEGTFKTHEQELVGAWARVHLKNTEIPVYVAVSYDEYVQMKDGHPNKMWTNKPCTMLGKVAESQALRMAFPAEFSGTYGEEELPEPEKEPREVNGVKEPDRAQIESFDKEDYAAKKIEELKEKAQPQKEVVKETGEVIDKITAEDF
Gene editing with Cas9
  Cas9 with SSAP activity: 0.284
  Cas9 with SSAP activity (normalized): 0.225
Gene editing with dCas9
  dCas9 with SSAP activity: −1.658
  dCas9 with SSAP activity (normalized): −0.897
[1]
  Activity across all experiments: −0.687

B6: SSAP_153: SEQ ID NO: 322; Staphylococcus intermedius (protein, listed as Staphylococcus intermedius)
chain: ANANSFKEQVSKNEVQETNNEKPKGPRQQVSDLLERMAPEIQKALPSHMSAERMARIAMTAISSNPQLLECNPRSLIGALLQASQIGLEPNTALGQAYLIPYYNHKKKEFEAQLQLSYLGLIELATRTGQYKAIYAHEVYKEDEFYYEYGLHKNLVHKPVDDPNGEPVGYYAVYHLQNGGFDFAYWTKNKIELHAGNYSKAVQKGWNSPWKTDFNAMAKKTVLKDLLKYAPKSIEISQAVGSDSKVTEINKQGEIIDITEYGQEALEG
Gene editing with Cas9
  Cas9 with SSAP activity: −2.201
  Cas9 with SSAP activity (normalized): −0.296
Gene editing with dCas9
  dCas9 with SSAP activity: −1.534
  dCas9 with SSAP activity (normalized): −0.179
[1]
  Activity across all experiments: −1.867

B7: SSAP_93: SEQ ID NO: 262; Morganella morganii (protein, listed as Morganella morganii)
chain: SNPPIAQADLQKAQGTAVKEKTKDQQLIQFINQPGMKAQLAAALPRHITPDRMIRIVTTEIRKTPSLATCDMQSFIGAVVQCSQLGLEPGNALGHAYLLPFGNGKAASGQSNVQLIIGYRGMIDLARRSGQIISISARTVREGDSFHFEYGLNEDLTHVPGENDSGPITHVYAVARLKEGGVQFEVMSFSQIEKVRDSSKAGKNGPWVSHWEEMAKKTVIRRLFKYLPVSIEMQRAVILDEKAEANVDQEHASIFEGEYETVSPE
Gene editing with Cas9
  Cas9 with SSAP activity: 0.714
  Cas9 with SSAP activity (normalized): 1.299
Gene editing with dCas9
  dCas9 with SSAP activity: −2.015
  dCas9 with SSAP activity (normalized): −0.557
[1]
  Activity across all experiments: −0.650

B8: SSAP_223: SEQ ID NO: 392; Haloactinospora alba (protein, listed as Haloactinospora alba)
chain: GQSVTNAVAQRDTSPSGMVGKYRDDFAQVMPSHVNGAGWVRIAQGILRRDAKLAEAARNAPQSLMSALMDAAQQGLTPGTTEFYLVPRKRKGSLEVQGITGYQGEIELIYRAGAVASVVAEIVHEHDTFEWIPGKHERPIHEADWFGNRGTMVGAYAYAVMNSGSTSKVVILNQHDIEKARAMSDGADSSYSPWQKWPESMWLKTAAHRLAKWVPTSAEYRHEQERARARSEDTEIPASPDSDVVHAEIVEENDDEQAT
Gene editing with Cas9
  Cas9 with SSAP activity: 0.236
  Cas9 with SSAP activity (normalized): 0.173
Gene editing with dCas9
  dCas9 with SSAP activity: −1.928
  dCas9 with SSAP activity (normalized): −0.948
[1]
  Activity across all experiments: −0.846

B9: SSAP_92: SEQ ID NO: 261; Edwardsiella piscicida (protein, listed as Edwardsiella piscicida)
chain: TNNQQPPIATADLQKAQSQAPAVKPDQKLINFINQPSMKGQIAAALPRHMAPDRMIRIITTEIRKTPALATCDMQSFIGSVVQCSQLGLEPGGALGHAYLLPFGNGKAKSGQSNVQLIIGYRGMIDLARRSGQIVSISARTVRDGDQFHYEYGLDETLKHVPGDNESSPITHVYAVAKLKDGGVQFEVMTFNQIEKVRGQSKAGNNGPWQTHWEEMAKKTVIRRLFKYLPVSIEMQKAVILDEKAEANIDQENASVISAEFSVVED
Gene editing with Cas9
  Cas9 with SSAP activity: 2.341
  Cas9 with SSAP activity (normalized): 2.795
Gene editing with dCas9
  dCas9 with SSAP activity: −1.516
  dCas9 with SSAP activity (normalized): −0.177
[1]
  Activity across all experiments: 0.412

B10: SSAP_111: SEQ ID NO: 280; Siminovitchia fordii (protein, listed as Siminovitchia fordii)
chain: ATNQDIKNQLANKANGNKPASPANTIAAYLKKMGPEIEKALPKHMDADRLARIALTTIRTTPKLLECNISSLMGAVMQSAQLGLEPGLIGHCYIIPYGKEATFIIGYKGMIDLARRSGQIQNIYAHAVFENDEFDYALGLHPKLEHKPAGSNRGEIIGAYAVAHFKDGGYQFEYMAKEDIEKRKSRSAAARSKHSPWATDYEEMAKKTVIRHMWKYLPISVEIQQQAIQDEVVRKDVTSEPEFIDMEDMPEVEEGQSEESEQVEAPFD
Gene editing with Cas9
  Cas9 with SSAP activity: 0.173
  Cas9 with SSAP activity (normalized): 0.129
Gene editing with dCas9
  dCas9 with SSAP activity: −1.417
  dCas9 with SSAP activity (normalized): −0.419
[1]
  Activity across all experiments: −0.622

B11: SSAP_135: SEQ ID NO: 304; Amycolatopsis arida (protein, listed as Amycolatopsis arida)
chain: HGTALNPERFTRVALTVIRQSADLQRCRPESLLGALMTSAQLGLEPGPLGEAYLVPYGDQVTFIPGYRGLIKLAWQSGQLRHISARVVHEGDRFSYSYGLHPDLIHQPTRGDRGPITDVYAAATLIDGGVEFEVLDVATVETIRARSRAGRKGPWVTDWEAMARKTAIRQLAKWLPMATVMSRAIAAEGTVRTDLDADALDDLTADPGPEVLDADPAWDGPEPPGDQARNQEPTTQGDA
Gene editing with Cas9
  Cas9 with SSAP activity: −1.283
  Cas9 with SSAP activity (normalized): −0.722
Gene editing with dCas9
  dCas9 with SSAP activity: −1.826
  dCas9 with SSAP activity (normalized): −2.544
[1]
  Activity across all experiments: −1.554

B12: SSAP_302: SEQ ID NO: 471; Clostridium saccharobutylicum (protein, listed as Clostridium saccharobutylicum)
chain: ATNSSLKNQLIEKEQTTVNVQETMFKNLINSDDVKSKFTEVLKDKAIQYINSIINLVNSDKDLIECEPKSIIDACMSAVSLDLSVDKNLEYVEIIPYKKKANFQLGYRGYIQLLLRTGEYKSVNIIEVYEGQLKSWNQLAEEFDIDFTYKKSDAVIGYAGYFEMLNGFRKSVYWSKENMDALRENSFKSDTRWNNDYKAMAKRAVIRNMISKWGSLSIEMEKAYCEDLNTDKFVNGN
Gene editing with Cas9
  Cas9 with SSAP activity: −0.842
  Cas9 with SSAP activity (normalized): −0.289
Gene editing with dCas9
  dCas9 with SSAP activity: −1.946
  dCas9 with SSAP activity (normalized): −0.772
[1]
  Activity across all experiments: −1.394

B13: SSAP_143: SEQ ID NO: 312; Staphylococcus chromogenes (protein)
chain: ANAKEFKKQMNSKNEVAETNNAPQKAKGPRQQVSDLLDRMAPEIQKALPNNMSAERMARIAMTAVSSNPKLLECDPKSFIGALMQASQIGLEPNTALGQAYLIPYGNQVQLQLSYLGLIELATRTGQYKAIYAHEVYKDDEFSYEYGLYKNLIHKPVDDPNGEPIGYYAVYHLMNGGYDFAYWTRKKVEAHAQQYSKAVQQGWNSPWKSDFNAMAKKTVLKDLLKYAPKAIEVSQAIGSDSKVSEINDEGEIIDVTDYSQEEEK
modifications: Staphylococcus chromogenes
Gene editing with Cas9
  Cas9 with SSAP activity: −0.553
  Cas9 with SSAP activity (normalized): −1.314
Gene editing with dCas9
  dCas9 with SSAP activity: −1.842
  dCas9 with SSAP activity (normalized): −1.900
[1]
  Activity across all experiments: −1.198
